Test results: patent US12503518B2, “Heparanase-neutralizing A54 monoclonal antibody” (TECHNION RESEARCH & DEVELOPMENT FOUNDATION LIMITED, priority 2020, dated 2025)

How the values were obtained:
U87 glioma cells = assay: Matrigel invasion assay; type: cell-based, human; details: antibody 2 g, 6 h, vs control mouse IgG; p=0.001; FIG. 4C
Method: Matrigel invasion assay. Invasion assay was performed using modified Boyden chambers with polycarbonate Nucleopore membrane, essentially as described (Arvatz et al. 2011, ibid.). Briefly, filters (6.5 mm in diameter, 8 μm pore-size) were coated with Matrigel (30 μl); Cells (2×10^5) in 100 μl of serum-free medium were seeded in triplicate on the upper part of each chamber in the presence of the indicated antibody, and the lower compartment was filled with 600 μl medium supplemented with 10% FCS. After incubation for 5 h at 37° C. in a 5% CO2 incubator, non-invading cells on the upper surface of the filter were wiped with a cotton swab, and migrated cells on the lower surface of the filter were fixed, stained with 0.5% crystal violet (Sigma) and counted by examination of at least seven microscopic fields (Barash et al., J Natl Cancer Inst. 110:1102-1114, 2018).
Thereafter, the antibody effect on cell invasion was examined. Briefly, U87 glioma cells (1×10^5) were plated onto Matrigel-coated 8-μm Transwell filters in the presence of control mouse IgG or mAb A54 ([…]). Invading cells adhering to the lower side of the membrane were visualized after 6 h (FIGS. 4A-B) and quantified (FIG. 4C; number of invading cells per high power field; *p=0.001) as described in ‘Methods’.

[1] = test system: Luc-CAG human myeloma cells; assay: CAG myeloma tumor growth in NOD/SCID mice, IVIS imaging; type: in vivo; details: 500 μg/mouse, 3 times/week from day 3; evaluated 3 weeks later; vs PBS; P=0.02
Method: CAG myeloma. Luciferase-labeled CAG human myeloma cells (5×10^6) are injected into the tail vein of NOD/SCID mice. Three days after cell inoculation, mice are randomly assigned to 2 cohorts (5-10 mice each) receiving (a) vehicle (PBS); and (b) A54 mAb (500 μg/mouse, 3 times/week). Tumor development is inspected (once a week) by IVIS imaging following administration of luciferin (see below). At termination, mice are sacrificed the backbones are excised, fixed in formalin and following de-calcification with 10% EDTA solution are embedded in paraffin and subjected to histological and immunohistochemical analyses.
IVIS imaging. […] Imaging is performed in real time, is non-invasive and provides quantitative data. […] Light emitted from the bioluminescent cells is detected by the IVIS camera system with images quantified for tumor burden using a log-scale color range set at 5×10^4 to 1×10^7 and measurement of total photon counts per second (PPS) using Living Image software (Xenogen).
The ability of mAb A54 to attenuate myeloma tumor development over time was examined. […] Tumor growth was evaluated 3 weeks later by IVIS imaging (FIGS. 5A and 5B). Quantification of luciferase signals is also shown graphically (FIG. 5C). […]

B1: mAb A54: heparanase-neutralizing murine monoclonal antibody, IgG1-Kappa; VH SEQ ID NO: 7, VL SEQ ID NO: 8; binds HBD-II of heparanase (antibody, listed as Mus musculus, V domains shown)
VH: QVQLQQSGAELAKPGASVRMSCKASGYTFTNYWMHWVKQRPGQGLEWIGYINPTTGYTEYNQKFKDKATLTADKSSSTAYMQLSSLTSEDSAVYYCARGGAGYDYDEDYAMDYWGQGTSVTVSS
VL: DIVLTQSPASLAVSLGQRATISCRASESVEYFGTSYMNWYQQKPGQPPKLLIYLASILESGIPARFSGSGSGTDFTLNIHPVEEEDAATYYCQQSNEDPYTFGGGTKLEIK
attenuation of invasion of U87 glioma cells through Matrigel (U87 glioma cells): ~90% | myeloma growth rate (IVIS luciferase signal) [1]: marked reduction in the myeloma growth rate
